In paper PMC3126804:

How the values were obtained:
[1] = target: heat shock protein 60 (Hsp60) on human ileocecal epithelial HCT-8 cells (human (endogenous in HCT-8)) (UniProt P10809); assay: adhesion of protein-coated fluospheres to cell monolayers; as the fluosphere assay on HCT-8 monolayers, but protein concentrations adjusted to have an equal number of molecules of each protein before immobilising on beads
[2] = target: heat shock protein 60 (Hsp60) on human ileocecal epithelial HCT-8 cells (human (endogenous in HCT-8)) (UniProt P10809); assay: adhesion of protein-coated fluospheres to cell monolayers; sulphate-modified fluospheres (1.0 µm) coated with 160 µg/mL of each purified protein (average bound 140 µg/ml) or 0.1% BSA, added to confluent HCT-8 monolayers (cells to spheres about 1:100), 2 h at 37°C, washed five times, read at 485/538 nm; also after pretreatment of cells with anti-Hsp60 MAb (1 µg/well, 1 h)
[3] = target: LAP subdomain N2 (Gly224–Gly411) (Listeria monocytogenes (strain F4244)); assay: ELISA; called immunofluorescence assay in microtiter plates: LAP proteins immobilised at 62.5–500 ng/100 µL (0.05 M sodium carbonate, pH 9.6) in Immulon 4HBX plates; Hsp60 100 µL of 2.4 µg/mL, RT 1.5 h; anti-Hsp60, HRP anti-mouse, fluorescent substrate Super Red; controls subtracted; KD from the 1-site binding equation (Prism 3)
[4] = target: Listeria adhesion protein (LAP), full-length (Listeria monocytogenes); assay: as above

Substance: Listeria adhesion protein (LAP), full-length (natural protein)
- mean fluorescence unit (fluorescence unit) [1]: 1380
- mean fluorescence unit (fluorescence unit) [2]: 999

Substance: LAP subdomain N2 (Gly224–Gly411) (domain or fragment)
- mean fluorescence unit (fluorescence unit) [1]: 1360
- mean fluorescence unit (fluorescence unit) [2]: 1400

Substance: heat shock protein 60 (Hsp60), purified (from UniProt P10809 27-573) (natural protein)
- Kd [3]: 9.51 nM
- Kd [4]: 7.17 nM
